Experimental data: patent US12006503B2, “Fusion proteins and methods thereof” (The Trustees of Columbia University in the City of New York, priority 2012, dated 2024)

Assays:
[1] = test system: Rat1A cells; experiment: Karyotype analysis (chromosome counts, aneuploidy) of Rat1A cells; type: cell-based, rat; details: Rat1A cells, 100 cells counted
Procedure: Distribution of chromosome counts of cells arrested in mitosis and analyzed for karyotypes using DAPI. Chromosomes were counted in 100 metaphase cells for each condition to determine the ploidy and the diversity of chromosome counts within the cell population. FGFR3-TACC3 fusion induces aneuploidy.
The upper panel is a karyotype analysis of Rat1A cells transduced with control or FGFR3-TACC3 lentivirus and treated with vehicle (DMSO) or PD173470 (100 nM) for five days.
Karyotype analysis. Cultured cells were colcemid (20 ng/ml) treated for 90 minutes before harvesting for karyotopic analysis as detailed in Extended Experimental procedures. At least one hundred cells in metaphase were examined for chromosome count. PMSCS was scored in cells where a majority of the sister chromosomes were no longer associated. Two-tailed unpaired t-tests with Welch's correction were performed for comparison of means analysis.
Karyotypic Analysis. The colcemid treated cells were trypsinized, centrifuged for 7 minutes at 200×g, and the cell pellet re-suspended in warmed hypotonic solution and incubated at 37° C. for 13 minutes. The swollen cells were then centrifuged and the pellet re-suspended in 8 ml of Carnoy's fixative (3:1 methanol:glacial acetic acid). The cell suspension was centrifuged and washed twice in Carnoy's fixative. After the last centrifugation, the cells were resuspended in 0.5 to 1 ml of freshly prepared fixative to produce an opalescent cell suspension. Drops of the final cell suspension were placed on clean slides and air-dried. Slides were stained with DAPI and metaphases were analyzed under a fluorescent microscope.

[2] = test system: Rat1; experiment: Soft agar colony assay, Rat1 cells; type: cell-based, rat; details: Rat1 cells transduced with the construct
Text: FGFR1-TACC1 and FGFR3-TACC3 induce anchorage-independent growth in Rat1A fibroblasts. The number of soft agar colonies was scored from triplicate samples 14 days after plating. Representative microphotographs are shown.

[3] = test system: Balb 3T3; experiment: Soft agar colony assay, Balb 3T3 cells; type: cell-based; details: Balb 3T3 cells transduced with the construct
[4] = test system: Ink4A;Arf-/- astrocytes in immunodeficient mice; experiment: Subcutaneous tumor xenograft formation by lentivirus-transduced Ink4A;Arf-/- astrocytes; type: in vivo, mouse; details: Ink4Arf-/- astrocytes expressing the construct
Text: FIG. 3B are photomicrographs showing of immunofluoresence staining of tumors from mice injected with Ink4A; Arf−/− astrocytes expressing FGFR3-TACC3 showing positivity for glioma-specific (Nestin, Oig2 and GFAP) and proliferation markers (Ki67 and pHH3). Sub-cutaneous tumors were generated by Ink4A; Arf−/− astrocytes expressing FGFR-TACC fusions.
Subcutaneous xenografts and drug treatment. […] For experiments with FGFR inhibitors, mice carrying ˜200-300 mm 3 subcutaneous tumors derived from Ink4A; Arf−/− astrocytes were randomized to receive 50 mg/kg PD173074 in 0.05 M lactate buffer (pH 5) or an equal volume of lactate buffer by oral gavage. Treatment was administered for three cycles consisting of four consecutive days followed by two days of rest. […] Data are expressed as mean±SE.

[5] = test system: Rat1; experiment: Subcutaneous tumor xenografts formed by transduced Rat1 cells; type: in vivo, rat; details: Rat1 cells expressing the construct

B1: FGFR3: wild type FGFR3 expressed by lentivirus (protein, listed as Homo sapiens)
chain: MGAPACALALCVAVAIVAGASSESLGTEQRVVGRAAEVPGPEPGQQEQLVFGSGDAVELSCPPPGGGPMGPTVWVKDGTGLVPSERVLVGPQRLQVLNASHEDSGAYSCRQRLTQRVLCHFSVRVTDAPSSGDDEDGEDEAEDTGVDTGAPYWTRPERMDKKLLAVPAANTVRFRCPAAGNPTPSISWLKNGREFRGEHRIGGIKLRHQQWSLVMESVVPSDRGNYTCVVENKFGSIRQTYTLDVLERSPHRPILQAGLPANQTAVLGSDVEFHCKVYSDAQPHIQWLKHVEVNGSKVGPDGTPYVTVLKTAGANTTDKELEVLSLHNVTFEDAGEYTCLAGNSIGFSHHSAWLVVLPAEEELVEADEAGSVYAGILSYGVGFFLFILVVAAVTLCRLRSPPKKGLGSPTVHKISRFPLKRQVSLESNASMSSNTPLVRIARLSSGEGPTLANVSELELPADPKWELSRARLTLGKPLGEGCFGQVVMAEAIGIDKDRAAKPVTVAVKMLKDDATDKDLSDLVSEMEMMKMIGKHKNIINLLGACTQGGPLYVLVEYAAKGNLREFLRARRPPGLDYSFDTCKPPEEQLTFKDLVSCAYQVARGMEYLASQKCIHRDLAARNVLVTEDNVMKIADFGLARDVHNLDYYKKTTNGRLPVKWMAPEALFDRVYTHQSDVWSFGVLLWEIFTLGGSPYPGIPVEELFKLLKEGHRMDKPANCTHDLYMIMRECWHAAPSQRPTFKQLVEDLDRVLTVTSTDEYLDLSAPFEQYSPGGQDTPSSSSSGDDSVFAHDLLPPAPPSSGGSRT
[1]
  Average variation from mean number: 1.3
  Mean number (chromosomal number): 42.1
  Percent aneuploidy: 33%
  Range (chromosomal number): 35-44
[2]
  soft agar colonies: 0
[3]
  soft agar colonies: 0
[4]
  Subcutaneous tumor xenografts (tumors formed/injections): 0/5
[5]
  Subcutaneous tumor xenografts (tumors formed/injections): 0/5
